Experimental findings from a protein production outcome set (Wang et al. 2014) are described below.

This series in a line: label from the status in PepcDB records.

For the sequence “MRFPVLSRFLHPDPRIRRELVELLYTSLPQVMAIGVTSVTGALALTLLGDDPGYAVITFFILVTATARVFSLMRYKARAARFTDADVVRWERLYGAGATAFGLALGALSFRALQLGDAPGAWIAFGLSMSYCVGMVSRAAIRPWIILTAAAALLMPTMIAGLMRPELAYKIGAGMLVLFWLTLREASKHLSAAFTERLEAKHRLARQATHDFLTDLPNRAGFLQALSDMAGNFTVVAIDLDGFKPINDRHGHHTGDDLLRQVAERLTTCVGADGVAARFGGDEFMLLKPVTSAEQGRDEALALARKAVFDLSMPYLLADLPVCIGASAGIAISHAALAGGNTAQLLERVDRALYVAKRAGGGCAWADGDIEPSCCPRSTPLAKDSAAA”, the protein production result is reported as “failed”.

On to “MRFRFGVVVPPAVAGARPELLVVGSRPELGRWEPRGAVRLRPAGTAAGDGALALQEPGLWLGEVELAAEEAAQDGAEPGRVDTFWYKFLKREPGGELSWEGNGPHHDRCCTYNENNLVDGVYCLPIGHWIEATGHTNEMKHTTDFYFNIAGHQAMHYSRILPNIWLGSCPRQVEHVTIKLKHELGITAVMNFQTEWDIVQNSSGCNRYPEPMTPDTMIKLYREEGLAYIWMPTPDMSTEGRVQMLPQAVCLLHALLEKGHIVYVHCNAGVGRSTAAVCGWLQYVMGWNLRKVQYFLMAKRPAVYIDEEALARAQEDFFQKFGKVRSSVCSL”, for which the protein production result is on record as “failed”.

“MRFRYAMVCSSNQNRSMEAHALLKRQGLDVASYGTGSHVKLPGPSLREPNVYDFGTPYKQMFDELRRKDPELYKRNGILQMIKRNLSVKLAPQRWQDNAGDGVFDVVMTFEEKVFDSVLEDLNNREQSLTKTILVMNLEVKDNHEEAAIGGRLALELCQEIEGNETWEDTIDDIVAGFEKQHRRKLVYSISFY”: the protein production result is recorded as “failed”.

On to “MRFSREALLELEASRLAPYAQKARDTRGRAHPEPESLYRTPYQKDRDRILHTTAFRRLEYKTQVLPGWAGDYYRTRLTHTLEVAQVSRSIARALGLNEDLTEAIALSHDLGHPPFGHTGEHVLNALMQDHGGFEHNAQALRILTHLEVRYPGFRGLNLTYEVLEGIATHEAAYSPGFKPLYEGQGTLEAQVVDLSDAIAYAAHDLDDGLRAGLLHPEELKEVELLQALALEEGLDLLRLPELDRRVLVRQLLGYFITAAIEATHRRVEEAGVQSAEAVRRHPSRLAALGEEAEKALKALKAFLMERFYRHPEVLRERRKAEAVLEGLFAAYTRYPELLPREVQAKIPEEGLERAVCDYIAGMTDRFALEAYRRLSP”, for which the protein production result is given as “not failed”.

With “MRGETELKQERSIALPLAISIIAISFAAVFVKMSSAPSSILSMYRLWIIVLLMLPIVWKKREEFSKIQIKDWGFLIGSGFFLALHFLLWFESLKHTTVASSTIILALQPIVSLVGGFFLFKERTTYSAIATMGIAILGVVCIGWGDLGLSEQAIYGDILSFLSVIAVVGYLFIGQTTVKKVSHWIYSFTVFAFAGIFMGIYNIVLQVPFTGYTKWDWTVFLLLAVVPTVSHVINNWLLNYVNATTISMSILGEPVGASILAFFLLGERLNAMQMIGSILVLFGVSVFLLQQQKRTAKNVVNEPVYTQEL”, the protein production result is on record as “failed”.

As for “MRGGGILDYIGYFLVAIIVIFVVVKLLEWPIKMLVKLIINGVIGAIMLFALNIFGKYIGISIGINIVTALIAGIFGIPGVIFLVILKFIM”, the protein production result is “failed”.

Turning to “MRGSVAALLLAAGRSIRMGRCKQLLPLGNTTVLGRCLDTLRRGGVGEIAVVVSADGEQVARAAAGHGVRVVVNPDREGDMASSVRAGRDAFGSAVGGVIVSLCDQPLVAAGTVARLRDRHATEPGRIIIPTHGGRRGHPLLFPLPVLAELEDGLTLRDLVVCDPARVCCVAVADPGILIDMDTPEDYRHVCRLMAPQEGLSLRLEHHHHHH”, the protein production result was “failed”.

On to “MRGVFLDKDKIPYDLVTKKLNEWYTSIKNDQVEQAEIIKTEVEKELLNMEENQDALLYYQLLEFRHEIMLSYMKSKEIEDLNNAYETIKEIEKQGQLTGMLEYYFYFFKGMYEFRRKELISAISAYRIAESKLSEVEDEIEKAEFFFKVSYVYYYMKQTYFSMNYANRALKIFREYEEYAVQTVRCQFIVAGNLIDSLEYERALEQFLKSLEISKESNIEHLIAMSHMNIGICYDELKEYKKASQHLILALEIFEKSKHSFLTKTLFTLTYVEAKQQNYNVALIYFRKGRFIADKSDDKEYSAKFKILEGLFFSDGETQLIKNAFSYLASRKMFADVENFSIEVADYFHEQGNLMLSNEYYRMSIEARRKIKKGEIIDENQPDSIGSSDFK”, for which the protein production entry is “failed”.

Take “MRGVSELEVGKSNLPAESELELGLGLSLGGGAWKERGRILTAKDFPSVGSKRSAESSSHQGASPPRSSQVVGWPPIGLHRMNSLVNNQAMKAARAEEGDGEKKVVKNDELKDVSMKVNPKVQGLGFVKVNMDGVGIGRKVDMRAHSSYENLAQTLEEMFFGMTGTTCREKVKPLRLLDGSSDFVLTYEDKEGDWMLVGDVPWRMFINSVKRLRIMGTSEASGLAPRRQEQKDRQRNNPV”: the protein production result was “failed”.

With “MRHLGLRNVISKLPAKINAAREFATSALVLIVFFGLLLILGRQFFRDSVVLEPISVPLHLEESGLNGGVAAQWLIDSIRTIQRNAASTKETKAIQATPKQINIEMPGVGFSLATIEQIIREALALPSPFIKGEIIKLGDSYQIRLRLPGAPYIHIEQPLGDKDVEKLIAKSAEKILLLKDPYIVAVDYYRKAEYKKAIEVINNMQPGADRLQSAYNELLLAAIATKQLEHEKASLHLKKADQLAPNLGVVKLNQAIQHALKKDPSTALSKYKEAKQLNLELQDDAFHSQILTELGRELVTDDSAEEKLALFRKAIDLAPENASAIIRLAEVLAHRQRPEENNEMLKLYEAAIGLVPNKPKYHFQYGKTLWEMGNKDKGCVQVKKAVELKPAMRVLANKYQCSK”, the protein production entry is reported as “failed”.

Take “MRHTLPIAPQFYVTAPQSCPYLEGRLERKLFTALQGEHAQKLNDTLSKQGFRRSQNVLYRPSCAECSACLSARIRVADFEPTRTQRRVMKRNADLRRNATSPWATEDQYALFRRYLDDRHADGGMADMDIFEFAAMIEETPIRSRVIEYSRPGDTPSNRPLSAVCLTDIFDDGLSMVYSFYDPDLAGRSLGAYVILDHIEIAREAGLPYVYLGYWVPGSRKMGYKATYSALEIYKGGRWQAIGQPSDHRAELHPLSVDPIAEQVARISLPEARSGDRSRDLEHHHHHH”: the protein production result was “not failed”.

In the case of “MRIDIVTIFPACLDPLRQSLPGKAIESGLVDLNVHDLRRWTHDVHHSVDDAPYGGGPGMVMKAPVWGEALDEICSSETLLIVPTPAGVLFTQATAQRWTTESHLVFACGRYEGIDQRVVQDAARRMRVEEVSIGDYVLPGGESAAVVMVEAVLRLLAGVLGNPASHQDDSHSTGLDGLLEGPSYTRPASWRGLDVPEVLLSGDHARIAAWRREVSLQRTRERRPDLSHPD”, the protein production result is “failed”.

As to “MRIFFLIFLLAYVGGNVYIFIRTLQMLSGFSLAMKILLSVIYWLVAFSLVIAMLTRHIDMPVILSKSMFHIGSVWLVFTLYMIFALLIADVTKIFVPSLNHGFYYALGATCCLLLYGYYNYRHPQVNKIDVSLDKPIEGNGINIVAVSDVHLGYGTGKAMLKEYVDMINAQHPDLILIGGDLIDNSLTPLYKENMAEELAQLKAPLGIYMVPGNHEYISGIDESVRFLKDTPIQLLRDSVVTLPNGVQIIGRDDRSNRSRHSLPTLLKQADRSKPIILLDHQPYNLAKTDSLGIDLQFSGHTHHGQIWPISWVTDRIYEQSHGYRKWSQSHIYVSSGLSLWGPPFRIGTNSDMAVFHLNQMAK”, the protein production entry is “not failed”.

In the case of “MRIGHGFDVHKFGENGSGPLIIGGVRIPYEKGLLAHSDGDVALHAATDALLGAAALGDIGKLFPDTDPAFKGADSRGLLREAYRRILAKGYKLGNLDITIIAQAPKMAPHIPQMRVNLAEDLQCHMDDINVKATTTEQLGFTGRGEGIACEAVVLLVNVEQG”, the protein production result is given as “not failed”.

Consider “MRIGVIGTGTIATAVVHGIAGDGHAITVSERSAANAQALAAAYPNVRVASNQVVVEECDILTLGLMAEQAPEILGPLPFRADQQVITLMAGATLEQVAQMVAPARAAAIMMPFPSIAQGGSPIMMQGDADLVAALFGARNRIFAVRDAAEMAAYLCAQAVLSPVARMVDDAAGWLATRVSDPVQGEAFLRALVASSLADTDSASLIEALNTPGGYNQRLRLHMEGAGMGDSLRAGLDALETGA”, for which the protein production entry was “failed”.

Consider “MRIIIVGGGKVGYQVARQCAAWGCDVVLVENDRQKGEKIKGELGLQVVIGDGTKAHFLKKAGAEEADIVVAVTDDDQDNLVICQLAERQFKAKRTLALVNNPGNEKLFRWLGVNQVIGPASLILGLIQERVDMDSTAAMWMQGIKDLKMIQFKLGPEAPVLGRKIKTIPFPNECILVTVVRENTAIVPCGNTVLEEGDLVFALANPAVQAELERVLTGKNDN”, for which the protein production entry is “failed”.

Take “MRILAFPYTHTLSHLSRVLAVALELRRMGHEVVFAGESAKVSFVSQQGFDVVPIHEPDPEMLFGNIRSGKLRFVEDAELLQMLTADIEVIRSLKPDLVLSDGRFSAPLSTHLTNVRHAAIVNASSTEYRALPYVPFFDWMPPWLISRDAMIWKALVRLNLFLEMKLFDNVMKVFKRLSRELNTNRTVTATNCLTGKDITLLADIPEYFPSRNLPASYHYVGPLTWKSVLAPPAWWPLDIPSSPLVYVTMGTTGVSEFFSKLGPSLSTSFFSSIVTTGGQSSELKPMPGKVYVESYLDGDLVMERSDVVICHGGNGTIYQALSHGKPVIGIPTIPDQKFNMRRVEAMGFGKSLDLKQFLEKPSLLADTVKQVLSDHSFRNSAQKIQAVLKSYNAATTSAKILIDSILLEHHHHHH”: the protein production entry is “failed”.

Turning to “MRILILGMGGTIASVKGERGYESALSVSKILKLAGISSEAKIEARDLMNVDSTLIQPSDWERLAKEIEKEVWEYDGIVITHGTDTMAYSASMLSFMLRNPPIPIVLTGSMLPITEKNSDAPFNLRTALEFVKLGIRGIYIAFNGKVMLGVRASKIRSMGFDAFESINYPNVAEIKDDKLRILHIPDFYGDEFFSDIKYEPKVLVIKLIPGLSGDIVREALRLGYKGIILEGYGVGGIPYRGTDLFEVVSSISKRIPVVLTTQAIYDGVDLQRYKVGRIALEAGVIPAGDMTKEATITKLMWILGHTKNIEEVKQLMGKNITGELTRVS”, the protein production entry is reported as “not failed”.

Turning to “MRILLVSRPHPEGARDPFTSLLPTGLGYLNAVLRENGFTSSLANLSTASWRQVEELLRRERPAILGISVFTHNRFESLRLAALAKKVDPTCLTIFGGPHATHAFESILVKYREVDGVILGEGEETFLDLARAVERGDRSLTGIVGLAYRKGAKVHSVKRPPVADLDVLPLPALHMNDAWGCDVRRQLEFIITSRGCPAACRFCSSPRFWGKSLRFRSPRAMVDEIRAIRDRYGLIYFSLRDDTFTVRKDRVIDFCRLLLEEKVHILWNCQSRVNAVDEEMLIWMRRAGCECVQYGVESGSEKILAYLGKQITPEQVRRAAKATRRAGISLSIYLISGVPGETDDDLQATLTLISNILPHDGHVAPLAYYPGTALFDEAVREGRVGADLFERERGAALYVRRDPFVARSMETLLRALTRVERKARFGPADFTAQREFLGYCHGTNLGQGEWLEAKGDIGKAEALYREIVERQPENPWGWLALGGLHGSRGDVTRAGKAFERAISLVPAHVPAYLALGDLRLEEGDQRGAKQLYETAKRLNPRDTDVGERLRMVVAERGTKKGDT”, the protein production entry was “failed”.
